The text below walks through data of patent US20160168250A1 (Genentech, published 2016).

Test [1] has as its target T1, His-tagged IgD2-D3 of human FGFR3-IIIb (human, UniProt P22607-2 143-374, limits assumed).
T1 construct: domain: IgD2-D3; also called FGFR3-IIIb-His protein; Human FGFR3 ECD IIIb; not shown: His tag
T1 sequence (looked up): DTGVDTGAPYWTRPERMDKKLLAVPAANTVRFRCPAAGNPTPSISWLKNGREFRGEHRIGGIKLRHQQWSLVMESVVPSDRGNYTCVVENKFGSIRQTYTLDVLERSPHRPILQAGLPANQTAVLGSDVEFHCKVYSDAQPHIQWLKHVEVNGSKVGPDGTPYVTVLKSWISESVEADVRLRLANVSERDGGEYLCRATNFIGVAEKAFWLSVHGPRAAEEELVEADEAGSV
In words: BIAcore; R3Mab on CM5 chip, FGFR3-His injected. The method, then:
For kinetic measurement, two-fold serial dilutions of FGFR3-IIIb or IIIc-His protein (starting from 67 nM) were injected in PBST buffer at 25° C. with a flow rate of 30 μl/minute. Association rates (Kon, per mol/s) and dissociation rates (Koff, per s) were calculated using a simple one-one Langmuir binding model (BIAcore Evaluation Software version 3.2). The equilibrium dissociation constant (Kd, per mol) was calculated as the ratio of Koff/Kon.

Another test addresses T2, FGFR3 on OPM2 cells (human, UniProt P22607).
T2 construct: full length, on cells; also called FGFR3 K650E
In words: Scatchard analysis: radioiodinated (125I) R3Mab on OPM2 cells in suspension with unlabeled antibody, 2 h at room temperature; mean of two binding experiments. The protocol: (§1) FIGS. 23A and 23B: Cell surface expression levels of FGFR3 in myeloma and bladder cancer cells. (FIG. 23A) Cell surface FGFR3 expression in myeloma cells and bladder cancer cells assessed by FACS analysis. Cells were stained with phycoerythin-conjugated mouse mAb against human FGFR3 (FAB766P, R&D Systems) or phycoerythin-conjugated isotype control mouse IgG1(BD Pharmingen). (FIG. 23B) Scatchard analysis of FGFR3 density in myeloma cells and bladder cancer cells. […] After incubation at RT for 2 hours, cells were pelleted by centrifugation and washed twice. Specifically bound ¹²⁵I was determined.

For test [2], the target named is T3, human FGFR4 ECD-human Fc chimeric protein (human, UniProt P22455 22-369).
T3 construct: extracellular domain; not shown: human Fc
In words: direct ELISA: FGFR ECD-human Fc chimeric protein coated on the plate, R3Mab titrated, detection with HRP anti-human Fab. An excerpt: (§2) Specific binding was detected using an anti-human Fab antibody. […] Error bars represent standard error of the mean (SEM) and are sometimes smaller than symbols.
(§3) cDNAs encoding the extracellular domains (ECD) of human FGFR1-IIIb, IIIc, FGFR2-IIIb and IIIc, FGFR3-IIIb and IIIc, and FGFR4 were cloned into pRK-based vector to generate human FGFR-human Fc chimeric proteins. The recombinant proteins were produced by transiently transfecting Chinese hamster ovary (CHO) cells and purified via protein A affinity chromatography. To test binding of antibodies to human FGFRs, Maxisorp 96-well plates (Nunc) were coated overnight at 4° C. with 50 μl of 2 μg/ml of FGFR ECD-human Fc chimeric proteins. After blocking with phosphate-buffered saline (PBS)/3% BSA, FGFR3 antibody was added and incubated at RT for 2 hours. Specifically bound FGFR3 antibody was detected using an HRP-conjugated anti-human Fab and the TMB peroxidase colorigenic substrate (KPL, Gaithersburg, Md.).

The target of test [3] is T4, human FGFR3-IIIb ECD-human Fc chimeric protein (human, UniProt P22607-2 23-377).
T4 construct: extracellular domain; also called FGFR3-Fc chimeric protein (IIIb); not shown: human Fc
T4 sequence (looked up): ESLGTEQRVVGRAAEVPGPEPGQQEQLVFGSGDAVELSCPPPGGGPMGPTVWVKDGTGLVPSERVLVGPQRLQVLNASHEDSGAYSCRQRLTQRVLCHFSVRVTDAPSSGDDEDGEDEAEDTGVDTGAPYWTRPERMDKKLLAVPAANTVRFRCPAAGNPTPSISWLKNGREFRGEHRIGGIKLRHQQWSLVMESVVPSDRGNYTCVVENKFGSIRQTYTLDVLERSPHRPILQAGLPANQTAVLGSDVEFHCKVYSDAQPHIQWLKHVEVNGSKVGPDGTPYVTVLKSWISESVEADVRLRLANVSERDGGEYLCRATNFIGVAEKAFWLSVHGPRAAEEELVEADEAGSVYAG
The test is described as above.
Source text: as §2, §3

Another test has as its target T5, FGFR3 on RT112 cells (human, UniProt P22607-2).
T5 construct: full length, on cells; also called WT FGFR3
In words: Scatchard analysis: radioiodinated (125I) R3Mab on RT112 cells in suspension with unlabeled antibody, 2 h at room temperature; mean of two binding experiments. The protocol: as §1

Test [4] addresses T4, human FGFR3-IIIb ECD-human Fc chimeric …. As to the kind of experiment: ELISA: blocking of FGF1 binding to captured FGFR3-IIIb-Fc. The method, then: as §2
(§4) To test the effect of antibodies to FGFR3 on FGF/FGFR3 interaction, FGFR3-Fc chimeric proteins were captured on Maxisorp plate coated with anti-human immunoglobulin Fcγ fragment-specific antibody (Jackson Immunoresearch, West Grove, Pa.). After wash, increasing amount of FGFR3 antibody was added to the plate and incubated for 30 minutes.

Another test deals with T6, FGFR3 on KMS11 cells (human, UniProt P22607).
T6 construct: full length, on cells; also called FGFR3 Y373C
In words: Scatchard analysis: radioiodinated (125I) R3Mab on KMS11 cells in suspension with unlabeled antibody, 2 h at room temperature; mean of two binding experiments. The method, then: as §1

Another test has as its target T7, FGFR3 on UMUC-14 cells (human, UniProt P22607-2).
T7 construct: full length, on cells; Same protein as r1, here on intact cells and not in lysates; also called FGFR3^S249C on cells
In words: Scatchard analysis: radioiodinated (125I) R3Mab on UMUC-14 cells in suspension with unlabeled antibody, 2 h at room temperature; mean of two binding experiments. The protocol: as §1

Test [5] concerns the target T4, human FGFR3-IIIb ECD-human Fc chimeric …. In words: ELISA: blocking of FGF9 binding to captured FGFR3-IIIb-Fc. The method, then: as §2, §4
Test [6] concerns the target T1, His-tagged IgD2-D3 of human FGFR3-IIIb. As to the kind of experiment: BIAcore.

B1: anti-FGFR3 antibody clone 184.6.1N54S (antibody, V domains shown)
VH: EVQLVESGGGLVQPGGSLRLSCAASGFTFTSTGISWVRQAPGKGLEWVGRIYPTSGSTNYADSVKGRFTISADTSKNTAYLQMNSLRAEDTAVYYCARARTYGIYDLYVDYTEYVMDYWGQGTLV
VL: DIQMTQSPSSLSASVGDRVTITCRASQDVDTSLAWYQQKPGKAPKLLIYSASFLYSGVPSRFSGSGSGTDFTLTISSLQPEDFATYYCQQSTGHPQTFGQGTKVEIKR
notes: also called R3Mab; R3 Mab
B1: the Kd came to 0.111 nM in [1]; 0.64 nM in the test with FGFR3 on OPM2 cells; 0.16 nM in the test with FGFR3 on RT112 cells; 0.35 nM with FGFR3 on KMS11 cells; 0.34 nM with FGFR3 on UMUC-14 cells. This molecule displayed a koff in [1] of 0.0002 s⁻¹. For the same molecule, in [1], the kon stood at 1.8e+06 M⁻¹ s⁻¹. The binding result in [2] was “no binding (tested: about 60 nM)”. Besides, the “EC50 (read off the curve)” value in test [3] is about 0.3 nM. Also, the IC50 was 0.3 nM in test [4] and 1.1 nM in [5].

B2: anti-FGFR3 antibody clone 184.6.58 (antibody, V domains shown)
VH: EVQLVESGGGLVQPGGSLRLSCAASGFTFTSTGISWVRQAPGKGLEWVGRIYPTNGSTNYADSVKGRFTISADTSKNTAYLQMNSLRAEDTAVYYCARTYGIYDLYVDYTEYVMDYWGQGTLVTVSS
VL: DIQMTQSPSSLSASVGDRVTITCRASQDVDISLAWYQQKPGKAPKLLIYSASSLASGVPSRFSGSGSGTDFTLTISSLQPEDFATYYCQQGAGNPYTFGQGTKVEIK
Molecule B2 returned a Kd in test [6] of 0.19 nM.
